This note sets out measurements from the RNAGym collection of RNA variant scans (doi:10.7554/elife.80360).

The labels stand for the following.
B1: Hairpin Ribozyme (parent)
chain: GUCCUCUUUCACGUGCGCGUGAAAGAGAGAAGUGAACCAGAGAAACACACGUUGUGGUAUAUUACCUGGUA

In the data set the parent is B1. The data set is described as follows: self-cleavage, relative activity (ratio to wild type); higher = more cleavage; co-transcriptional.
Turning to CUCCUCUUUCACGUGCGCGUGAAAGAGAGAAGUGAACCAGAGAAACGCACGUUGUGGUAUAUUACCUGGUA [G1C A47G], the self-cleavage was found to be 0.13.

As for CUCCUCUUUCACGUGCGCGUGAAAGAGAGAAGUGAACCAGAGAAACUCACGUUGUGGUAUAUUACCUGGUA [G1C A47U], the self-cleavage stood at 0.152.

With UUCCUCUUUCACGUGCGCGUGAAUGAGAGAAGUGAACCAGAGAAACACACGUUGUGGUAUAUUACCUGGUA [G1U A24U], the self-cleavage is 0.117.

Take CUCCUCUUUCACGUGCGCGUGAAAGAGAGAAGUGAACCAGAGAAACACACGUUGUGAUAUAUUACCUGGUA [G1C G57A]: the self-cleavage is 0.134.

As for CUCCUCUUUCACGUGCGCGUGAAAGAGAGAAGUGAACCAGAGAAACACACGUUGUGCUAUAUUACCUGGUA [G1C G57C], the self-cleavage was determined as 0.118.

With CUCCUCUUUCACGUGCGCGUGAAAGAGAGAAGUGAACCAGAGAAACACAUGUUGUGGUAUAUUACCUGGUA [G1C C50U], the self-cleavage came to 0.321.

In the case of CUCCUCUUUCACGUGCGCGUGAAAGAGAGAAGUGAACCAGAGAAACACAAGUUGUGGUAUAUUACCUGGUA [G1C C50A], the self-cleavage came to 0.147.

Turning to CUCCUCUUUCACGUGCGCGUGAAAGAGAGAAGUGAACCAGAGAAACACACGUUGUGGUAUAUUACCUAGUA [G1C G68A], the self-cleavage was 0.362.

Regarding CUCCUCUUUCACGUGCGCGUGAAAGAGAGAAGUGAACCAGAGACACACACGUUGUGGUAUAUUACCUGGUA [G1C A44C], the self-cleavage worked out at 0.125.

As to CUCCUCUUUCACGUGCGCGUGAAAGAGAGAAGUGAACCAGAGAAAAACACGUUGUGGUAUAUUACCUGGUA [G1C C46A], the self-cleavage was 0.208.

On to CUCCUCUUUCACGUGCGCGUGAAAGAGAGAAGUGAACCAGAGAAAUACACGUUGUGGUAUAUUACCUGGUA [G1C C46U], for which the self-cleavage came to 0.0993.

With CUCCUCUUUCACGUGCGCGUGAAAGAGAGAAGUGAACCAGAGAAAGACACGUUGUGGUAUAUUACCUGGUA [G1C C46G], the self-cleavage stood at 0.307.

Regarding CUCCUCUUUUACGUGCGCGUGAAAGAGAGAAGUGAACCAGAGAAACACACGUUGUGGUAUAUUACCUGGUA [G1C C10U], the self-cleavage stood at 0.241.

Turning to CUCCUCUUUGACGUGCGCGUGAAAGAGAGAAGUGAACCAGAGAAACACACGUUGUGGUAUAUUACCUGGUA [G1C C10G], the self-cleavage came to 0.247.

With CUCCUCUUUCACGUGCGCGUGAAAGAAAGAAGUGAACCAGAGAAACACACGUUGUGGUAUAUUACCUGGUA [G1C G27A], the self-cleavage was found to be 0.16.

In the case of UUCCUCUUUCACGUGCGCGUGAAAGAGAGAAGUGAACCAGAGAAACACACGUUGUGGUAUAUUACCUGGUA [G1U], the self-cleavage is 0.13.

In the case of CUCCUCUUUCACGUGCGCGUGAAAGAGAGAAGUGAACCAGAGAAACACACGCUGUGGUAUAUUACCUGGUA [G1C U52C], the self-cleavage came to 0.132.

For the variant CUCCUCUUUCACGAGCGCGUGAAAGAGAGAAGUGAACCAGAGAAACACACGUUGUGGUAUAUUACCUGGUA [G1C U14A], the self-cleavage is 0.046.

With CUCCUCUUUCACGCGCGCGUGAAAGAGAGAAGUGAACCAGAGAAACACACGUUGUGGUAUAUUACCUGGUA [G1C U14C], the self-cleavage was 0.

With CUCCUCUUUCACGUGCGCGUGAAAGAGAGAAGUGAACCAGAGAAACACACGUUGUGGUAUAUUAACUGGUA [G1C C65A], the self-cleavage is 0.141.

Take CUCCUCUUUCACGUGCGCGUAAAAGAGAGAAGUGAACCAGAGAAACACACGUUGUGGUAUAUUACCUGGUA [G1C G21A]: the self-cleavage was determined as 0.109.

Regarding CUCCUCUUUCACGUGCGCGUUAAAGAGAGAAGUGAACCAGAGAAACACACGUUGUGGUAUAUUACCUGGUA [G1C G21U], the self-cleavage was found to be 0.274.

With CUCCUCUUUCACGUGCGCGUGAAAGAGAGAAGUGAACCACAGAAACACACGUUGUGGUAUAUUACCUGGUA [G1C G40C], the self-cleavage is 0.0947.

As to CUCCUCUUUCACGUGCGCGUGAAAGAGAGAAGUGAAUCAGAGAAACACACGUUGUGGUAUAUUACCUGGUA [G1C C37U], the self-cleavage was determined as 0.177.

As for UUCCUCUUUCACGUGCGCGUGCAAGAGAGAAGUGAACCAGAGAAACACACGUUGUGGUAUAUUACCUGGUA [G1U A22C], the self-cleavage stood at 0.146.

With CUCCUCUUUCACGUGCGCGUGAAAGAGAGAAGUGAACCAGAGAAACACACGUUGUAGUAUAUUACCUGGUA [G1C G56A], the self-cleavage turned out to be 0.0459.

For CUCCUCUUUCACGUGCGCGUGAAAGAGAGAAGUGAACCAGAGAAACACACGUUGUCGUAUAUUACCUGGUA [G1C G56C], the self-cleavage came to 0.202.

For CUCCUCUUUCACGUGCGCGUGAAAGAGAGAAGUGGACCAGAGAAACACACGUUGUGGUAUAUUACCUGGUA [G1C A35G], the self-cleavage came out at 0.121.

With CUCCUUUUUCACGUGCGCGUGAAAGAGAGAAGUGAACCAGAGAAACACACGUUGUGGUAUAUUACCUGGUA [G1C C6U], the self-cleavage turned out to be 0.249.

CUCCUGUUUCACGUGCGCGUGAAAGAGAGAAGUGAACCAGAGAAACACACGUUGUGGUAUAUUACCUGGUA [G1C C6G]: the self-cleavage was 0.249.

As to UUCCUCUUUCACGUGCGCGUGAAAGAGUGAAGUGAACCAGAGAAACACACGUUGUGGUAUAUUACCUGGUA [G1U A28U], the self-cleavage worked out at 0.198.

For CUACUCUUUCACGUGCGCGUGAAAGAGAGAAGUGAACCAGAGAAACACACGUUGUGGUAUAUUACCUGGUA [G1C C3A], the self-cleavage is 0.257.

CUCCUCUUUCACGUGCGCGUGAAAGAGGGAAGUGAACCAGAGAAACACACGUUGUGGUAUAUUACCUGGUA [G1C A28G]: the self-cleavage is 0.167.

For the variant CUCCUCGUUCACGUGCGCGUGAAAGAGAGAAGUGAACCAGAGAAACACACGUUGUGGUAUAUUACCUGGUA [G1C U7G], the self-cleavage came out at 0.258.

With CUCCUCUUUCACGUGCGCGUGAAAGAGAGAAGUGAACCAGAGAAGCACACGUUGUGGUAUAUUACCUGGUA [G1C A45G], the self-cleavage came out at 0.0824.

As for CUCCUCUUUCACGUGCGCGUGAAAGAGAGAAGUGAACCAGAGAACCACACGUUGUGGUAUAUUACCUGGUA [G1C A45C], the self-cleavage is 0.

Regarding CUCCUCUUUCACGUGCGCGUGAAAAAGAGAAGUGAACCAGAGAAACACACGUUGUGGUAUAUUACCUGGUA [G1C G25A], the self-cleavage came to 0.154.

In the case of CUCCUCUUUCACGUGCGCGUGAAACAGAGAAGUGAACCAGAGAAACACACGUUGUGGUAUAUUACCUGGUA [G1C G25C], the self-cleavage was 0.159.
